These results are taken from patent US20190315842A1 (DUKE UNIVERSITY, published 2019).

The target of experiment [1] is systemic lupus erythematosus autoantigen SSA. Nature of the experiment: AtheNA Multi-Lyte ANA, Ab at 50 ug/ml.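 Note: monoclonal antibodies probed against a nuclear autoantigen panel (SSA, SSB, Sm, RNP, Scl-70, Jo-1, dsDNA, CentB, histones), with anti-HIV 4E10 and palivizumab as control antibodies.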
Method: (§1) All 7 mAbs were tested against the AtheNA Multi-Lyte panel of autoantigens. The AtheNA Multi-Lyte ANA test for a panel of nuclear antigens: systemic lupus erythematosus autoantigens SSA and SSB, sphingomyelin (Sm), ribonucleoprotein (RNP), sclerosis autoantigen (Scl-70), histidine-tRNA ligase (Jo-1), double-stranded DNA (dsDNA), centromere B (CentB), and histones. 4e10 (Anti HIV, NIH AIDS Reagent Program) and SYNAGIS® (anti-RSV monoclonal antibody palivizumab; “Synagis”) were used a controls.
Experiment [2] addresses T1, Sm (sphingomyelin).
T1 construct: in an ANA panel of nuclear antigens Sm is usually the Smith ribonucleoprotein antigen; Kept, but see recheck
Nature of the experiment: AtheNA Multi-Lyte ANA, Ab at 50 ug/ml.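 Note: monoclonal antibodies probed against a nuclear autoantigen panel (SSA, SSB, Sm, RNP, Scl-70, Jo-1, dsDNA, CentB, histones), with anti-HIV 4E10 and palivizumab as control antibodies.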
Method: as §1

The target in experiment [3] is ribonucleoprotein (RNP). As to the kind of experiment: AtheNA Multi-Lyte ANA, Ab at 50 ug/ml.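 Note: monoclonal antibodies probed against a nuclear autoantigen panel (SSA, SSB, Sm, RNP, Scl-70, Jo-1, dsDNA, CentB, histones), with anti-HIV 4E10 and palivizumab as control antibodies.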
Method: as §1
Experiment [4] addresses T2, sclerosis autoantigen (Scl-70) (UniProt P11387 2-765, limits assumed).
T2 sequence (looked up): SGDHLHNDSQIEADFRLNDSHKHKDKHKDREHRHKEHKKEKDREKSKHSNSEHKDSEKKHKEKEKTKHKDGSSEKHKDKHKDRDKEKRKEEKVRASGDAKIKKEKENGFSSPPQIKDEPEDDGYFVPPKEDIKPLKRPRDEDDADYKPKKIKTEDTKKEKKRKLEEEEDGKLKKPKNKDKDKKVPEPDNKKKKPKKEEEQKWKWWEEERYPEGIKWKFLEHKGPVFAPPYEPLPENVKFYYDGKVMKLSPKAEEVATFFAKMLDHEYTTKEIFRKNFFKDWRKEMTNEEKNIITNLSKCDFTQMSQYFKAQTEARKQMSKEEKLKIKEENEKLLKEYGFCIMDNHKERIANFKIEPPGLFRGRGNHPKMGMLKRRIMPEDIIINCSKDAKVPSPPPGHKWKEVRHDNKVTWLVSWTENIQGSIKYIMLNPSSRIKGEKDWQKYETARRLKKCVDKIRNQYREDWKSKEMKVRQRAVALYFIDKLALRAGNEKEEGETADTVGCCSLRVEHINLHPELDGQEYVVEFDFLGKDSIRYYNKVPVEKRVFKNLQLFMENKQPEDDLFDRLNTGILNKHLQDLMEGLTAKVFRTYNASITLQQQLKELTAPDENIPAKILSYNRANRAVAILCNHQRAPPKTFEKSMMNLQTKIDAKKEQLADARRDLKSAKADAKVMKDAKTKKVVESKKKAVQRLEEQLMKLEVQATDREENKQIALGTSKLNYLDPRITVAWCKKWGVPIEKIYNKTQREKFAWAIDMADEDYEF
As to the kind of experiment: AtheNA Multi-Lyte ANA, Ab at 50 ug/ml.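 Note: monoclonal antibodies probed against a nuclear autoantigen panel (SSA, SSB, Sm, RNP, Scl-70, Jo-1, dsDNA, CentB, histones), with anti-HIV 4E10 and palivizumab as control antibodies.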
Method: as §1

Experiment [5] addresses T3, histidine-tRNA ligase (Jo-1) (UniProt P12081 2-509).
T3 sequence (looked up): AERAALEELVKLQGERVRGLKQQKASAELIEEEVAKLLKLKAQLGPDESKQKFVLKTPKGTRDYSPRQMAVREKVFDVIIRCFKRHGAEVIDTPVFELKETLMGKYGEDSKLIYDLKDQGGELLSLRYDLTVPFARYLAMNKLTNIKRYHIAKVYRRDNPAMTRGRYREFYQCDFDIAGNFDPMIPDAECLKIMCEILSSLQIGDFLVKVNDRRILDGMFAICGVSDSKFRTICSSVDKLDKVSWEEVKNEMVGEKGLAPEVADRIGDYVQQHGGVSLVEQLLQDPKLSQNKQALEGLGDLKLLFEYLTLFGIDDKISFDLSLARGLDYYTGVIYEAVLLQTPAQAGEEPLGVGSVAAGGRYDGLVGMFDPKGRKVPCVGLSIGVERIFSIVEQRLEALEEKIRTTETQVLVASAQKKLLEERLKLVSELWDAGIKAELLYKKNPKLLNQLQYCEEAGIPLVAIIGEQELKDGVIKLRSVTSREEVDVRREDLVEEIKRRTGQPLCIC
Nature of the experiment: AtheNA Multi-Lyte ANA, Ab at 50 ug/ml.
Method: as §1

The target of experiment [6] is systemic lupus erythematosus autoantigen SSA. As to the kind of experiment: AtheNA Multi-Lyte ANA, Ab at 12.5 ug/ml.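 Note: monoclonal antibodies screened for binding to a panel of nuclear autoantigens (SSA, SSB, Sm, RNP, Scl-70, Jo-1, dsDNA, CentB, histones), with anti-HIV and anti-RSV antibodies as controls.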
Method: as §1
Experiment [7] concerns the target T1, Sm (sphingomyelin). As to the kind of experiment: AtheNA Multi-Lyte ANA, Ab at 12.5 ug/ml.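 Note: monoclonal antibodies screened for binding to a panel of nuclear autoantigens (SSA, SSB, Sm, RNP, Scl-70, Jo-1, dsDNA, CentB, histones), with anti-HIV and anti-RSV antibodies as controls.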
Method: as §1
In experiment [8] the target is ribonucleoprotein (RNP). As to the kind of experiment: AtheNA Multi-Lyte ANA, Ab at 12.5 ug/ml.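 Note: monoclonal antibodies screened for binding to a panel of nuclear autoantigens (SSA, SSB, Sm, RNP, Scl-70, Jo-1, dsDNA, CentB, histones), with anti-HIV and anti-RSV antibodies as controls.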
Method: as §1
Experiment [9] addresses T2, sclerosis autoantigen (Scl-70). As to the kind of experiment: AtheNA Multi-Lyte ANA, Ab at 12.5 ug/ml.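 Note: monoclonal antibodies screened for binding to a panel of nuclear autoantigens (SSA, SSB, Sm, RNP, Scl-70, Jo-1, dsDNA, CentB, histones), with anti-HIV and anti-RSV antibodies as controls.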
Method: as §1
In experiment [10] the target is T3, histidine-tRNA ligase (Jo-1). Nature of the experiment: AtheNA Multi-Lyte ANA, Ab at 12.5 ug/ml.
Method: as §1
Experiment [11] deals with systemic lupus erythematosus autoantigen SSA. As to the kind of experiment: AtheNA Multi-Lyte ANA, Ab at 6.25 ug/ml.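 Note: monoclonal antibodies screened for reactivity against a panel of nuclear autoantigens, with an anti-HIV and an anti-RSV monoclonal antibody serving as controls.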
Method: as §1
The target of experiment [12] is T1, Sm (sphingomyelin). As to the kind of experiment: AtheNA Multi-Lyte ANA, Ab at 6.25 ug/ml.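 Note: monoclonal antibodies screened for reactivity against a panel of nuclear autoantigens, with an anti-HIV and an anti-RSV monoclonal antibody serving as controls.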
Method: as §1
Experiment [13] has as its target ribonucleoprotein (RNP). Nature of the experiment: AtheNA Multi-Lyte ANA, Ab at 6.25 ug/ml.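 Note: monoclonal antibodies screened for reactivity against a panel of nuclear autoantigens, with an anti-HIV and an anti-RSV monoclonal antibody serving as controls.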
Method: as §1
In experiment [14] the target is T2, sclerosis autoantigen (Scl-70). As to the kind of experiment: AtheNA Multi-Lyte ANA, Ab at 6.25 ug/ml.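 Note: monoclonal antibodies screened for reactivity against a panel of nuclear autoantigens, with an anti-HIV and an anti-RSV monoclonal antibody serving as controls.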
Method: as §1
In experiment [15] the target is T3, histidine-tRNA ligase (Jo-1). Nature of the experiment: AtheNA Multi-Lyte ANA, Ab at 6.25 ug/ml.
Method: as §1
Experiment [16] has as its target T4, systemic lupus erythematosus autoantigen SSB (UniProt P05455 1-408, limits assumed).
T4 sequence (looked up): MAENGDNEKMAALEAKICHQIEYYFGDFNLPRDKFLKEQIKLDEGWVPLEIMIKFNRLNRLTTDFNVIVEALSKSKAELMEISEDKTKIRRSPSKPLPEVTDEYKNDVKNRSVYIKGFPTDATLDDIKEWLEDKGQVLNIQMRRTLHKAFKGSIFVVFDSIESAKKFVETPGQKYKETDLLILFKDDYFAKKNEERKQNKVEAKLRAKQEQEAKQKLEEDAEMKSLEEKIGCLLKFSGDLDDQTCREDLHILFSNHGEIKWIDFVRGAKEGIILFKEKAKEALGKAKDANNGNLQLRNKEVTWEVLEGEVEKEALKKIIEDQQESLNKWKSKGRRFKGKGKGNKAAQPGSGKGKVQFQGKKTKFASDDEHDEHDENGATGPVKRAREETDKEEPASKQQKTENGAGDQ
Nature of the experiment: AtheNA Multi-Lyte ANA, Ab at 50 ug/ml.
Method: as §1

B1: Ab7957/293i (antibody, IgG1, V domains shown)
VH: LVESGGGVVPPGKSLRLSCAASGFTFSLYGIHWVRQAPGKGLEWVAVISYDGNTKYYTDSVKGRFTISRDNAKNTIYLQMNSLRLDDTAVYYCAKGAANSATFDFWGRGTMVTVSS
VL: MTQSPDSLTLSLGERATINCRSSRTVLYRSNNKNYLAWYQHKPGQPPKLLMSWASTRETGVPDRFSGSGSGTHFTLTITSLQPEDVAVYYCQQYYSPPWTFGQGTKVEIR
notes: Recombinant human antibody with IgG1 heavy chain backbone and kappa light chain constant; they begin at LVESGGG and MTQSP; also called Ab7957i; mAb 7957
For B1, the AtheNA signal in experiment [1] came to 11; in [2], 4; in experiment [3], 6; in experiment [4], 2; in [5] it was 5; in experiment [6], 9. Also, the AtheNA signal in experiment [7] turned out to be 1; in experiment [8], 3; in experiment [9], 2; in experiment [10] it was 3; in experiment [11] it was 9; in experiment [12], 3. Further, the values for the AtheNA signal in experiment [13], in experiment [14] and in [15] were 3, 2 and 3, respectively.

B2: Ab7968 (antibody, IgG1, V domains shown)
VH: LVESGGGVVQPGRSLRLSCAASGFTFSRYGMHWVRQAPGKGLEWVAVMSYDGSTKYYADSVKGRFAISRDNPKNTLFLQMNSLRPDDTAVYYCAKGGAAAAVMDVWGKGTTVTVSS
VL: MTQSPDSLTVSLGERATISCKSSQRLLYSSNNKNYLAWYQQKPGQPPKLLMYWASTRESGVPDRFSGSGSGTDFSLTISSLQAEDVAVYYCQQYYNPPWTFGQGTKVEVK
notes: Recombinant human antibody with IgG1 heavy chain backbone and kappa light chain constant; they begin at LVESGGG and MTQSP; also called mAb 7968; mAb7968
On to B2, for which the AtheNA signal in [1] turned out to be 7; in [16], 9; in [2], 7; in experiment [3], 10; in experiment [4], 4; in experiment [5] it was 7. In addition, the AtheNA signal was 4 in [6]; 7 in experiment [7]; 7 in [8]; 3 in [9]; 2 in experiment [10]; 4 in [11]. The AtheNA signal in [12] is 4; in experiment [13], 7; in [14] it was 3; in [15] it was 4.

B3: Ab7962/293i (antibody, V domains shown)
VH: LVESGGGLVQPGGSLRLSCAASGFTFSSYEMNWVRQAPGKGLEWVSYISSSGSTIYYADSVKGRFTISRDNAKNSLYLQMNSLRAEDTAVYYCARVEQLAPSPYMDVWGKGTTVTVSS
VL: MTQSLDSLTVSLGERATINCKSSQSLLYTSNNKNYLAWYQQKSGQPPKLLIYWASIRDSGVPDRFSGSGSATDFTLTINNLQAEDVAVYFCQQYYKTPLTFGGGTKVEVR
notes: Recombinant human antibody with IgG1 heavy chain backbone and kappa light chain constant (IgM in the donor B cell); they begin at LVESGGG and MTQSL; also called clone 27; pH007962/pK005996
Turning to B3, the AtheNA signal amounted to 2 in experiment [1]; 8 in [16]; 4 in experiment [2]; 5 in [3]; 2 in [4]; 4 in experiment [5]. The AtheNA signal in [6] worked out at 2; in experiment [7] it was 3; in experiment [8], 3; in experiment [9] it was 2; in experiment [10], 5; in [11], 2. Also, the AtheNA signal in experiment [12] is 4; in experiment [13] it was 2; in [14], 1; in [15], 4.
